Measured values as given in paper PMC9347012, “Regulation of tomato fruit elongation by transcription factor BZR1.7 through promotion of SUN gene expression”.

B1: E-box-mt probe (CAAATG to TCGCGA) (dsDNA)
DNA 1: TGTCCATCAAGACCGAAATCGCGAAGAAAAATCACCTAGTGT
DNA 2: ACACTAGGTGATTTTTCTTCGCGATTTCGGTCTTGATGGACA
B2: E-box-wt probe (SUN promoter, 42 bp) (dsDNA)
DNA 1: TGTCCATCAAGACCGAAACAAATGAGAAAAATCACCTAGTGT
DNA 2: ACACTAGGTGATTTTTCTCATTTGTTTCGGTCTTGATGGACA

Target: BZR1.7 (His-6-MBP-BZR1.7) (Solanum lycopersicum, UniProt A0A3Q7IIT4 1-180)
Test: EMSA; EMSA: 20 uL binding reaction buffer (composition not given), 40 min at 4 °C in the dark; 6% native PAGE, 0.5x TBE, 4 °C; pH and salt not given
Settings: protein: recombinant; tags: His6-MBP, N-terminal; label: 5'-FAM (on one strand; partner unlabeled); blunt

Chain of BZR1.7 (His-6-MBP-BZR1.7) (A0A3Q7IIT4 entry or part of it): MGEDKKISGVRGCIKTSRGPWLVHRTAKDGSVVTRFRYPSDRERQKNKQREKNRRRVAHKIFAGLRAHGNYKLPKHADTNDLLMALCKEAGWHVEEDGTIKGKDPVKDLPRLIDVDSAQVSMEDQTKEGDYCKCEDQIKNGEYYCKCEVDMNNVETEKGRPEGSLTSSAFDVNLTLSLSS

Binder	binding result
B1	no binding
B2	binds
